Assay results reported in patent US20190292266A1 (NAVIGO PROTEINS, published 2019).

Molecular target: T1, CD3 (Example 7)
T1 construct: Partner of the 145-2C11 Fab and its fusions
Test: SPR, biotinylated CD3 on SA chip, Langmuir 1:1
Method: For SPR-analysis of PD1/CD3, a CM5 sensor Chip (GE Healthcare) with immobilized target PD1 (about 800 RU) was prepared. CD3 was 10 times biotinylated and immobilized on SA coupled sensor chip (GE Healthcare) of about 200 RU. Specific binding of biotin and streptavidin provides a strong interaction of the target protein on the chip. Injection of free biotin blocks unbound streptavidin avoiding unspecific interaction during measurement. Determination of dissociation constant and data evaluation was equal to Example 6.

T1 sequence (P22646 22-108): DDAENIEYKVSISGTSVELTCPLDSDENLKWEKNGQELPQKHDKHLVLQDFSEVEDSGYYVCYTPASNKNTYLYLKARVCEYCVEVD

- Kd: 13.4 nM
- koff: 0.00296 s⁻¹
- kon: 221000 M⁻¹ s⁻¹
B1: 145-2C11 Fab Fragment (Fab, V domains shown)
VH: EVQLVESGGGLVQPGKSLKLSCEASGFTFSGYGMHWVRQAPGRGLESVAYITSSSINIKYADAVKGRFTVSRDNAKNLLFLQMNILKSEDTAMYYCARFDWDKNYWGQGTMVTVSS
VL: DIQMTQSPSSLPASLGDRVTINCQASQDISNYLNWYQQKPGKAPKLLIYYTNKLADGVPSRFSGSGSGRDSSFTISSLESEDIGSYYCQQYYNYPWTFGPGTKLEIKR
notes: also called PID 38; CD3 specific Fab fragment
